Paper PMC3280358 (Molecular Cell, 2012)
Changes are numbered by the printed parent chain. Names and notes keep the numbering of the source.

B1: Rad51 NTD with S14D substitution (domain or fragment, human, UniProt Q06609 1-86, looked up)
chain: MAMQMQLEANADTDVEEESFGPQPISRLEQCGINANDVKKLEEAGFHTVEAVAYAPKKELINIKGISEAKADKILAEAAKLVPMGF
notes: also called NTD S14D; source: recombinant
B2: Rad51 NTD with S14E substitution (domain or fragment, human, UniProt Q06609 1-86, looked up)
chain: B1 chain with D14E
notes: also called NTD S14E; source: recombinant

Molecular target: T1, recombinant full-length FLAG-Nbs1 (human, UniProt O60934 1-754)
T1 construct: Nbs1 (Nijmegen breakage syndrome gene product), human, full length; also called recombinant full-length Nbs1; source: recombinant, a gift from Tanya Paull
T1 sequence (looked up): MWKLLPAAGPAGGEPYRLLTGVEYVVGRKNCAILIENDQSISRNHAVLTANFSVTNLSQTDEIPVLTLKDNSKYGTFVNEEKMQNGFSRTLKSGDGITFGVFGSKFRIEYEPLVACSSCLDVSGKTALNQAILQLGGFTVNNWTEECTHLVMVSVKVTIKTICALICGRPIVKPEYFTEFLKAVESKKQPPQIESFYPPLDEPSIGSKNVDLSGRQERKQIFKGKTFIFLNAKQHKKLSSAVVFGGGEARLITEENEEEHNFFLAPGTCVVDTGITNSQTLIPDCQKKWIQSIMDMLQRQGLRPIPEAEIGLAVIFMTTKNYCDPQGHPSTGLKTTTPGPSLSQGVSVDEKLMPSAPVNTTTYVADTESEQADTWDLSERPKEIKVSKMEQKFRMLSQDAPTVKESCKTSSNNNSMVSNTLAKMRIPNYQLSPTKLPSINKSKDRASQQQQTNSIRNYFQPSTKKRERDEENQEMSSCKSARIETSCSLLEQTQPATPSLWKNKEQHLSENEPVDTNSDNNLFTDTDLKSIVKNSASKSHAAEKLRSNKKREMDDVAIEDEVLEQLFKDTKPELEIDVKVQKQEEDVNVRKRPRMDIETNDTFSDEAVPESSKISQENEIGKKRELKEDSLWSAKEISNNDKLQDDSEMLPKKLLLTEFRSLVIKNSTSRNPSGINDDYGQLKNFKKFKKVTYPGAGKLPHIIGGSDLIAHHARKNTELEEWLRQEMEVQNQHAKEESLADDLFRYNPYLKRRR
Assay: far-Western, overlay or dot blot; Rad51 NTD kinase reaction (250 μM ATP) resolved by SDS-PAGE, transferred to nitrocellulose, incubated with recombinant full-length FLAG-Nbs1 (∼ 2 μg), detected with anti-Nbs1 antibody
Conditions: both partners purified

Row | Binder | binding result
1 | B1 | binds
2 | B2 | binds
